From patent US20040106198A1, “Inhibition of peptide cleavage in plants” (LARGE SCALE BIOLOGY CORPORATION, priority 2002, published 2004) come the findings set out here.

For the test, the system named is CD34+. The experiment in a line: CD34+ proliferation assays. It counts as cell-based. The conditions noted are these: proteins purified from plants. The method, then: The vectors were used to inoculate plant leaves of different sets of plants as described in the examples above. Both plant homogenates and interstitial fluid were extracted as described above. hSCF and pSCF were each purified from 27 plants to yield 0.85 mg (˜15 mg/kg) and 2.5 mg (˜45 mg/kg) of protein respectively.

B1: pSCF: porcine Stem Cell growth Factor expressed in plants from GENEWARE vector (protein)
chain: QGICRNRVTDDVKDVTKLVANLPKDYKITLKYVPGMDVLPSHCWISEMVEQLSVSLTDLLDKFSNISEGLSNYSIIDKLVKIVDDLVECMEEHSFENVKKSSKSPEPRLFTPEKFFGIFNRSIDAFKDLEMVAPKTSECVISSTLTPEKDSRVSVTKPFMLPPVAA
For the molecule B1, the “biological activity in CD34+ proliferation assays” value is recorded as “biologically active”.
